Consider 13 sequences from the supplement of paper PMC9170038.

The series deals with MS2 coat protein. Put plainly: apparent KD of MS2 coat protein; designed switch direction (-1 OFF switch, 1 ON switch): -1; higher = weaker reporter binding. The essentials:
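RNA switches sharing common flanks were transcribed by stalled E. coli RNA polymerase on Illumina chips. A doubling series of SNAP-549-labelled MS2 coat protein, from 0.7 or 1.5 nM to 3 µM, was applied in Tris-HCl pH 7.5 buffer with KCl, MgCl2, BSA, DTT, tRNA and Tween-20. Each step lasted 0.8–1.5 h at the bottom of the series and 10–20 min at the top. Normalised cluster fluorescence was curve-fitted, giving apparent KD as the per-design median over clusters.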

The mark [1] stands for this setting: Eterna round: R95, input ligand: microRNA oligo, concentration not stated.

“AAAUCGGCAGGAUAUACAUGAGGAUCACCCAUGUAAAUUUUUCGUUUAACUUGAAUGUGUAGAAGGGCCAUUAA [Ex3 #64] (Eterna round: R97, puzzle: Exclusion 3)”: the “apparent KD of MS2 coat protein” value reads like this: (input ligand: FMN 200 uM) 24.8 nM; (input ligand: none) 24.6 nM.
Consider “AAAUCGGUAGAGGAUAUUGUACAGGAAACGGUGCAAGAAGGUUACACAUGAGGAUCACCCAUGUUAAAUAGCGA [EX6 #53] (Eterna round: R97, puzzle: Exclusion 6)”, for which the “apparent KD of MS2 coat protein” value turned out to be 26.9 nM (input ligand: FMN 200 uM) and 18.1 nM (input ligand: none).
As for “AAAUCGGUGGAGGAUAUUGUACAGGAAACGGUGCGAGAAGGUUACACAUGAGGAUCACCCAUGUUAAAUAGCGA [EX6 #56] (Eterna round: R97, puzzle: Exclusion 6)”, the “apparent KD of MS2 coat protein” value worked out at 25.2 nM (input ligand: FMN 200 uM) and 22.1 nM (input ligand: none).
Consider “AAAUGACAUUAGGAUAUGUAACGCGGUUGCCGCACAGAAGGGAUGACUUGAGGAUCACCCAAGUGACCCAAGGA [Tixebion] (Eterna round: R97, puzzle: Exclusion 6)”, for which the “apparent KD of MS2 coat protein” value reads like this: (input ligand: FMN 200 uM) 26.4 nM; (input ligand: none) 28.2 nM.
For the sequence “AAAUGAGAGCAGGAUAUCUUAUAAAUGUAUGAAAGAGAAGGGCUCACAUGAGGAUCACCCAUGUGGUCCUAGAU [jl-ex6-4.77 jandersonlee mod] (Eterna round: R97, puzzle: Exclusion 6)”, the “apparent KD of MS2 coat protein” value runs as follows: (input ligand: FMN 200 uM) 673 nM; (input ligand: none) 32.7 nM.
For the sequence “AAAUGUUCGGAGGAUAUAGAACGAUUGUCCGAGCUAGAAGGCCGAACAUGAGGAUCACCCAUGUGUACCUGAAA [Atmare] (puzzle: Exclusion 6)”, the “apparent KD of MS2 coat protein” value (Eterna round: R95, input ligand: FMN 200 uM) was 256 nM; the “apparent KD of MS2 coat protein” value under setting [1] was found to be 38.8 nM; the “apparent KD of MS2 coat protein” value (Eterna round: R95, input ligand: none) came to 41.2 nM.
As to “AAAUUAGCAAGUAGAUCCGACAUGAGGAUCACCCAUGUUAUCUGAAAGAACGCAGCAUAAUUGUGAGCUCGUCUAAA [Sensor-V1 #4] (Eterna round: R97, puzzle: Sensor, turn-off variant 1)”, the “apparent KD of MS2 coat protein” value reads like this: (input ligand: FMN 200 uM) 93.7 nM; (input ligand: none) 91.5 nM.
Consider “AAAUUAGCAAGUAGGUCCGACAUGAGGAUCACCCAUGUAAGCUAAUCUUACGCUGCAUGAGAGUGCGCUCGUCUUAA [Sensor-V1 #19] (Eterna round: R97, puzzle: Sensor, turn-off variant 1)”, for which the “apparent KD of MS2 coat protein” value (input ligand: FMN 200 uM) amounted to 360 nM and the “apparent KD of MS2 coat protein” value (input ligand: none) is 515 nM.
With “AAAUUAGCAAGUAGGUCCGACAUGAGGAUCACCCAUGUUAGCUAAUCUAACGCUGCAUGAGAGUGCGCUCGUCUUAA [Sensor-V1 #20] (Eterna round: R97, puzzle: Sensor, turn-off variant 1)”, the “apparent KD of MS2 coat protein” value runs as follows: (input ligand: FMN 200 uM) 140 nM; (input ligand: none) 149 nM.
Turning to “AAAUUCAGAGGAUAUGCGCAUAGAUAAGACUUUUUUUCUUAACAUGAGGAUCACCCAUGUAGAAGGCUGUAAAC [Ex2 #61] (Eterna round: R97, puzzle: Exclusion 2)”, the “apparent KD of MS2 coat protein” value runs as follows: (input ligand: FMN 200 uM) 18.8 nM; (input ligand: none) 16.2 nM.
As for “AAAUUCUGAGGAUAUCGAUGUUUGUACAUGAGGAUCACCCAUGUCCUUUUUAUUUUUUCCCGAGAAGGCAGUGUAU [JR_E5_Sub099] (puzzle: Exclusion 5)”, under setting [1], the “apparent KD of MS2 coat protein” value was 36.6 nM.
For “AAAUUGGUAGAGGAUAUCGCACAGGAUUUACUGCGAGAAGGCUGCACAUGAGGAUCACCCAUGUUUAGUUGCGA [EX6 #36] (Eterna round: R97, puzzle: Exclusion 6)”, the “apparent KD of MS2 coat protein” value runs as follows: (input ligand: FMN 200 uM) 20.3 nM; (input ligand: none) 17.3 nM.
For “AAAUUGUGAGGAUAUUCGUAGUACACGGAGACGUGUAUUACGGAGAAGGCACAUGAGGAUCACCCAUGUUCCUU [jl-ex4-13 Eli mod] (Eterna round: R97, puzzle: Exclusion 4)”, in that order: 103 nM and 19.1 nM.
